Test results reported in EP4682168A1, “ANTI-LIV-1 ANTIBODY AND ANTI-LIV-1 ANTIBODY-DRUG CONJUGATE, AND PHARMACEUTICAL USE THEREOF” (priority 2023, dated 2024).

What was measured:
[1] = biological target: T1, LIV-1 expressed on the cell surface of cancer cell lines (human) (UniProt Q13433); test: flow cytometry, isotype control, PC-3 cells (endogenous LIV-1)
T1 sequence (looked up): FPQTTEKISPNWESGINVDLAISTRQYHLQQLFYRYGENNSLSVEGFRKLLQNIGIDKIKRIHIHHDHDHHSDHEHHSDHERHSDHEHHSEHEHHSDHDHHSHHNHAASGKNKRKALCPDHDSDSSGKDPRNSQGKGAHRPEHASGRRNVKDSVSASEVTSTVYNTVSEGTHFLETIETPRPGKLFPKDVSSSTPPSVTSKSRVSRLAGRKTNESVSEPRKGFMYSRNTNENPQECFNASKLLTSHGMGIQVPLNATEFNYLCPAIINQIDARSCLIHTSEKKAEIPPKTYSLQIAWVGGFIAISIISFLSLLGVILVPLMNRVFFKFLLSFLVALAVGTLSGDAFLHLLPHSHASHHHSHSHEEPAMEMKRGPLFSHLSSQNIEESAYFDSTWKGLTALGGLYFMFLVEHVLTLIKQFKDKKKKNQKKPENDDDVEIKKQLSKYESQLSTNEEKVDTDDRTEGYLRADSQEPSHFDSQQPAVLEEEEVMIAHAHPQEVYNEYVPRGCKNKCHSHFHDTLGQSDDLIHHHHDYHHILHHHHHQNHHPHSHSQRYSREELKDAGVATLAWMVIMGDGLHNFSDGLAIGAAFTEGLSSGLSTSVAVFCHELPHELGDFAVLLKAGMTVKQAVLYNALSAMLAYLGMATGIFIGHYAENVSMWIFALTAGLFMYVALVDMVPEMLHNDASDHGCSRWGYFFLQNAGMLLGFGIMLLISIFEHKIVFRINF

[2] = biological target: T1, LIV-1 expressed on the cell surface of cancer cell lines (human); test: flow cytometry, isotype control, MCF7-Liv1 #17 cells (high exogenous LIV-1)
[3] = biological target: T1, LIV-1 expressed on the cell surface of cancer cell lines (human); test: flow cytometry, isotype control, MCF7-Liv1 #12 cells (moderate exogenous LIV-1)
[4] = biological target: T1, LIV-1 expressed on the cell surface of cancer cell lines (human); test: flow cytometry, isotype control, HCC 1806 cells (endogenous LIV-1)
[5] = biological target: T1, LIV-1 expressed on the cell surface of cancer cell lines (human); test: flow cytometry, isotype control, Calu6 cells (endogenous LIV-1)
[6] = biological target: T1, LIV-1 expressed on the cell surface of cancer cell lines (human); test: flow cytometry, isotype control, MCF7-Liv1 #7 cells (high exogenous LIV-1)
[7] = system: PA-1 mouse subcutaneous tumors; test: PA-1 ovarian cancer xenograft efficacy study; assay type: in vivo, CD1 athymic nude mice; details: Single dose of 3 mg/kg, intravenous injection
Experimental: (§1) Tumor cells grown in the implantation culture of CD1 athymic nude mice: Calu-6 (2.5 × 10^6 cells in 50% matrigel) from ATCC, PC-3 (2.5 × 10^6 cells) from ATCC, and PA-1 (5 × 10^6 cells in 50% matrigel) from ATCC. Tumor cells grown in the implantation culture of NSG mice: HCC1806 (2.5 × 10^6 cells in 50% matrigel) from ATCC and MCF-7 (10 × 10^6 cells; for the in vivo growth of MCF-7, 8.5 µg/mL estradiol was added to the drinking water of female mice) from NCI.
(§2) When the tumors grew to 150 mm^3, the humanized LIV-1 ADC or the non-binding control ADC (1 mg/kg, 3 mg/kg, 6 mg/kg, or 10 mg/kg) was administered by intravenous injection once every four days for a total of four administrations (q4d × 4), by intravenous injection once every week for a total of 2 administrations (qw × 2), or by single intravenous injection. The tumor volume was monitored using a caliper, and the animals were euthanized when the tumor volume reached about 2000 mm^3. Tumor volume plots were continued for each group until one or more animals were euthanized. All animal procedures were conducted in a facility approved by the Association for Assessment and Accreditation of Laboratory Animal Care in accordance with protocols approved by the Institutional Animal Care and Use Committee. TGI was calculated as follows: TGI (%) = 1−[(Td−T0)/(Cd−C0)] × 100% [formula] […]

[8] = system: PC3 mouse subcutaneous tumors; test: PC3 prostate cancer xenograft efficacy study; assay type: in vivo, CD1 athymic nude mice; details: Single dose of 10 mg/kg, intravenous injection
Experimental: as §1, §2

[9] = biological target: T1, LIV-1 expressed on the cell surface of cancer cell lines (human); test: flow cytometry, 10 µg/mL antibody, PC-3 cells (endogenous LIV-1)
[10] = biological target: T1, LIV-1 expressed on the cell surface of cancer cell lines (human); test: flow cytometry, antibody A against IgG1 isotype control, PC-3 cells
[11] = biological target: T1, LIV-1 expressed on the cell surface of cancer cell lines (human); test: flow cytometry, 10 µg/mL antibody, Calu6 cells (endogenous LIV-1)
[12] = biological target: T1, LIV-1 expressed on the cell surface of cancer cell lines (human); test: flow cytometry, 10 µg/mL antibody, MCF7-Liv1 #17 cells (high exogenous LIV-1)
[13] = biological target: T1, LIV-1 expressed on the cell surface of cancer cell lines (human); test: flow cytometry, 10 µg/mL antibody, HCC 1806 cells (endogenous LIV-1)
[14] = biological target: T1, LIV-1 expressed on the cell surface of cancer cell lines (human); test: flow cytometry, antibody A against IgG1 isotype control, MCF7-Liv1 #12 cells
[15] = biological target: T1, LIV-1 expressed on the cell surface of cancer cell lines (human); test: flow cytometry, antibody A against IgG1 isotype control, HCC 1806 cells
[16] = biological target: T1, LIV-1 expressed on the cell surface of cancer cell lines (human); test: flow cytometry, 10 µg/mL antibody, MCF7-Liv1 #7 cells (high exogenous LIV-1)
[17] = biological target: T1, LIV-1 expressed on the cell surface of cancer cell lines (human); test: flow cytometry, antibody A against IgG1 isotype control, Calu6 cells
[18] = biological target: T1, LIV-1 expressed on the cell surface of cancer cell lines (human); test: flow cytometry, antibody A against IgG1 isotype control, MCF7-Liv1 #7 cells
[19] = biological target: T1, LIV-1 expressed on the cell surface of cancer cell lines (human); test: flow cytometry, 10 µg/mL antibody, MCF7-Liv1 #12 cells (moderate exogenous LIV-1)
[20] = biological target: T1, LIV-1 expressed on the cell surface of cancer cell lines (human); test: flow cytometry, antibody A against IgG1 isotype control, MCF7-Liv1 #17 cells
[21] = biological target: human LIV-1 antigen (with a His tag, NP_036451.1, amino acids Phe229-Ile323) (human) (UniProt Q13433); test: ForteBio (BLI)
[22] = biological target: T2, LIV-1 expressed on the cell surface of cancer cell lines (human, UniProt Q13433 29-755); test: cell-based or functional assay
T2 sequence (looked up): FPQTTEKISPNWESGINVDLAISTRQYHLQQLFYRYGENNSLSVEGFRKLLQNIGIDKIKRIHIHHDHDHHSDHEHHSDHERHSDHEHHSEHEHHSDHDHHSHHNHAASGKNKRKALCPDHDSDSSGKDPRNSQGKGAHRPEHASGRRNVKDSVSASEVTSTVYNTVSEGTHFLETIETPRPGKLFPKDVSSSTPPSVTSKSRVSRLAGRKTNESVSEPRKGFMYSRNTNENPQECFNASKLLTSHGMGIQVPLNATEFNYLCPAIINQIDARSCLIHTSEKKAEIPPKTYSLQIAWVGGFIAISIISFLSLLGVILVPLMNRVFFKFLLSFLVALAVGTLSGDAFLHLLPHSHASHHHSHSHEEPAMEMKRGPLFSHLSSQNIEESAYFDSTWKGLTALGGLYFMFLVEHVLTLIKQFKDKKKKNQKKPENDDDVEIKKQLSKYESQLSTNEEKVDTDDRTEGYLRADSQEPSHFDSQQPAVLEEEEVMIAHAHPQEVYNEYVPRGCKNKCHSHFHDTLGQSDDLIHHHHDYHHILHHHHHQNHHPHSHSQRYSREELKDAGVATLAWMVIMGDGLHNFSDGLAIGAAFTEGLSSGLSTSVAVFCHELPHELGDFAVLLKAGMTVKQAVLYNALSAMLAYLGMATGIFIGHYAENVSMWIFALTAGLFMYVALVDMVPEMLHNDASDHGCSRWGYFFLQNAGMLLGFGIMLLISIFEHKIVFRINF

Molecule: non-specific isotype control commercial antibody IgG (BioXCell, BE0297)
- MFI (RFU) [1]: 2840 RFU
- MFI (RFU) [2]: 1510 RFU
- MFI (RFU) [3]: 3120 RFU
- MFI (RFU) [4]: 2180 RFU
- MFI (RFU) [5]: 4440 RFU
- MFI (RFU) [6]: 3410 RFU

B1: L-McMMAE: Ladiratuzumab antibody L conjugated to MC-MMAE, DAR of 3.5-4; prior-art ADC targeting Liv-1 (conjugate, chains of the INN, looked up)
VH: QVQLVQSGAEVKKPGASVKVSCKASGLTIEDYYMHWVRQAPGQGLEWMGWIDPENGDTEYGPKFQGRVTMTRDTSINTAYMELSRLRSDDTAVYYCAVHNAHYGTWFAYWGQGTLVTVSS
VL: DVVMTQSPLSLPVTLGQPASISCRSSQSLLHSSGNTYLEWYQQRPGQSPRPLIYKISTRFSGVPDRFSGSGSGTDFTLKISRVEAEDVGVYYCFQGSHVPYTFGGGTKVEIK
modifications: MC-MMAE payload
- Tumor growth inhibition rate TGI% (day 13 after administration) [7]: 26.68%
- Tumor growth inhibition rate TGI% (day 24 after administration) [8]: 103.92%

B2: Antibody A (antibody, human IgG1, kappa, V domains shown)
VH: EVQLVQSGAEVKKPGATVKISCKASGLNIEDYYMHWVQQAPGKGLEWMGWIDPENGDTEYAEKFQGRVTITADTSTNTAYMELSSLRSEDTAVYYCTVHNAHYGTWFAYWGQGTTVTVSS
VL: DIVMTQTPLSLSVTPGQPASISCRSSQTLVRSDGNTYLEWYLQKPGQSPQLLIYRVSNRFSGVPDRFSGSGSGTDFTLKISRVEAEDVGVYYCFQGSHVPYTFGGGTKLEIKR
- MFI (RFU) [9]: 5660 RFU
- MFI ratio (MFI of anti-LIV-1/MFI of control antibody) [10]: 2
- MFI (RFU) [11]: 11100 RFU
- MFI (RFU) [12]: 107000 RFU
- MFI (RFU) [13]: 4420 RFU
- MFI ratio (MFI of anti-LIV-1/MFI of control antibody) [14]: 6.7
- MFI ratio (MFI of anti-LIV-1/MFI of control antibody) [15]: 2
- MFI (RFU) [16]: 132000 RFU
- MFI ratio (MFI of anti-LIV-1/MFI of control antibody) [17]: 2.5
- MFI ratio (MFI of anti-LIV-1/MFI of control antibody) [18]: 38.7
- MFI (RFU) [19]: 20900 RFU
- MFI ratio (MFI of anti-LIV-1/MFI of control antibody) [20]: 71.1

B3: Antibody A-1 (antibody, human IgG1, kappa, V domains shown)
VH: EVQLVQSGAEVKKPGATVKISCKASGLNIEDYYMHWVQQAPGKGLEWMGWIDPENGDTEYAEKFQGRVTITADTSTDTAYMELSSLRSEDTAVYYCTVHNAHYGTWFAYWGQGTTVTVSS
VL: DIVMTQTPLSLSVTPGQPASISCRSSQTLVRSDGNTYLEWYLQKPGQSPQLLIYRVSNRFSGVPDRFSGSGSGTDFTLKISRVEAEDVGVYYCFQGSHVPYTFGGGTKLEIKR
- Kd [21]: 0.0524 nM
- koff [21]: 4.17e-05 s⁻¹
- kon [21]: 796000 M⁻¹ s⁻¹

B4: A-BrAcMMAE (antibody, human IgG1, kappa, V domains shown)
VH: EVQLVQSGAEVKKPGATVKISCKASGLNIEDYYMHWVQQAPGKGLEWMGWIDPENGDTEYAEKFQGRVTITADTSTNTAYMELSSLRSEDTAVYYCTVHNAHYGTWFAYWGQGTTVTVSS
VL: DIVMTQTPLSLSVTPGQPASISCRSSQTLVRSDGNTYLEWYLQKPGQSPQLLIYRVSNRFSGVPDRFSGSGSGTDFTLKISRVEAEDVGVYYCFQGSHVPYTFGGGTKLEIKR
modifications: MMAE drug-linker (compound 11, bromoacetyl-Val-Cit-PAB-MMAE) on reduced cysteine sulfhydryls; average DAR 3.5-4; positions not given
- IC50 (nM) for inhibition of proliferation, Calu6 cells, CellTiterGlo2 [22]: 11 nM
- IC50 (nM) for inhibition of proliferation, MCF7-Liv1 #7 cells, CellTiterGlo2 [22]: 0.03 nM
- IC50 (nM) for inhibition of proliferation, MCF7-Liv1 #12 cells, CellTiterGlo2 [22]: 0.031 nM
- IC50 (nM) for inhibition of proliferation, MCF7-Liv1 #17 cells, CellTiterGlo2 [22]: 0.05 nM
